In patent publication US20240400701A1 (LANOVA MEDICINES DEVELOPMENT, published 2024):

Experiments:
[1] = target: T1, human AMHRII (anti-Mullerian hormone receptor type 2) (human, UniProt Q16671 18-573); assay: FACS on Rko cells over-expressing human AMHR2
T1 construct: whole, on cells; also called AMHR2; human AMHR2
T1 sequence (looked up): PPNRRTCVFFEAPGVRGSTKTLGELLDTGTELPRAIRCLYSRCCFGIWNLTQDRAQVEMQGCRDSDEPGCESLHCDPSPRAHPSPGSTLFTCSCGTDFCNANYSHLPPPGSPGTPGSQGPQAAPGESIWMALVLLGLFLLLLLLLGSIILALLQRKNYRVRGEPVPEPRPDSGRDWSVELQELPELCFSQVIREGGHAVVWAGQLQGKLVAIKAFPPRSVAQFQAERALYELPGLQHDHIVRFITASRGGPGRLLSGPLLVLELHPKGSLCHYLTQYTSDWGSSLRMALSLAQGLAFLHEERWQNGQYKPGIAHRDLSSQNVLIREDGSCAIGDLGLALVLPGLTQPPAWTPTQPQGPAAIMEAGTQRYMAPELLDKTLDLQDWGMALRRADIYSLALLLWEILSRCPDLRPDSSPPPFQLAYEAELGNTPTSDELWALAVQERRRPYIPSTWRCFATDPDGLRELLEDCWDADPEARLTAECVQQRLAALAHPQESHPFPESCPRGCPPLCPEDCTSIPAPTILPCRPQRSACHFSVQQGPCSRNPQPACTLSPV
Description: (§1) Rko cells over-expressing AMHR2 were harvested from flasks. 100 μl of 1×10⁶ cells/ml of cells were incubated with primary PTM antibodies in 3-fold serial dilutions starting from 300 nM to 0.001 nM for 30 minutes on ice. After being washed with 200 μl of FACS buffer twice, cells were incubated with secondary antibody for 30 minutes on ice. Cells were washed with 200 μl of FACS buffer twice and analyzed by FACS.

mouse AMHR2 = target: T2, mouse AMHR2 (mouse, UniProt Q8K592 16-568); assay: FACS on CHO-K1 cells over-expressing mouse AMHR2
T2 construct: whole, on cells; also called mouse AMHRII
T2 sequence (looked up): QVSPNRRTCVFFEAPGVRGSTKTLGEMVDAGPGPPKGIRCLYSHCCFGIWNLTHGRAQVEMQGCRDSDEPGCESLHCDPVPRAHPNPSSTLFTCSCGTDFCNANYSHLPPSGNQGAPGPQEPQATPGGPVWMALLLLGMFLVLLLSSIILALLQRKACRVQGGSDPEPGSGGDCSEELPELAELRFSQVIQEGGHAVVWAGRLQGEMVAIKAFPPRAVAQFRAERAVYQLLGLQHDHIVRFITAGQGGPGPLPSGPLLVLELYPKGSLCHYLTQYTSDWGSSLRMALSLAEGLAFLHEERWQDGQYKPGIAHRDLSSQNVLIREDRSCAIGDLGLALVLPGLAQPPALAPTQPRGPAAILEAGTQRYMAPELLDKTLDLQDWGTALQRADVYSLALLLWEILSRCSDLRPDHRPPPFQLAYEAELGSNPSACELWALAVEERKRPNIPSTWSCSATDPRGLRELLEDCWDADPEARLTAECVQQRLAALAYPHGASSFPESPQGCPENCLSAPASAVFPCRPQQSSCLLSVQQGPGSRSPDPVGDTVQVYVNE
Description: as §1, with “To evaluate these antibodies' cross reactivities to cyno, rat and mouse AMHR2, CHO-K1” for “Rko”, “cyno, rat and mouse AMHR2, respectively,” for “AMHR2”, “primary” for “primary PTM”, “4-fold” for “3-fold”, “0.018” for “0.001”

rat AMHR2 = target: T3, rat AMHR2 (rat, UniProt Q62893 18-557); assay: FACS on CHO-K1 cells over-expressing rat AMHR2
T3 construct: whole, on cells; also called rat AMHRII
T3 sequence (looked up): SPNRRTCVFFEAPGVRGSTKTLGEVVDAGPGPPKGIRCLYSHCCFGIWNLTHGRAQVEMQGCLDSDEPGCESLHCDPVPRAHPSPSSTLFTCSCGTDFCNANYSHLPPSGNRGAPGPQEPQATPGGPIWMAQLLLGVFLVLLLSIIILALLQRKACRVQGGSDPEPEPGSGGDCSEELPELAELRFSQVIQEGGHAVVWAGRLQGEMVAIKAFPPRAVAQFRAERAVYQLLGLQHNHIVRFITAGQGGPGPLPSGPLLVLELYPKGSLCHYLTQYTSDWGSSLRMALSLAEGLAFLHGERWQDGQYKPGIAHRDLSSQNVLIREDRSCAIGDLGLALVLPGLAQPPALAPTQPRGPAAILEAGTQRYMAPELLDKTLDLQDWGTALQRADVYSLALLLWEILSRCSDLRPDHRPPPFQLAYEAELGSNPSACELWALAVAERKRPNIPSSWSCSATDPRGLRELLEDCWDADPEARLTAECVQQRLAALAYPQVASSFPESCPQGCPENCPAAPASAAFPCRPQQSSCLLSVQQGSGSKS
Description: as §1, with “To evaluate these antibodies' cross reactivities to cyno, rat and mouse AMHR2, CHO-K1” for “Rko”, “cyno, rat and mouse AMHR2, respectively,” for “AMHR2”, “primary” for “primary PTM”, “4-fold” for “3-fold”, “0.018” for “0.001”

[2] = target: T1, human AMHRII (anti-Mullerian hormone …); assay: FACS on CHO-K1 cells over-expressing human AMHR2
Description: as §1, with “CHO-K1” for “Rko”, “over-expressed” for “over-expressing”, “the humanized” for “primary PTM”

[3] = target: T1, human AMHRII (anti-Mullerian hormone …); assay: FACS on CHO-K1 cells over-expressing human AMHR2; remark: listed apart in the source
Description: as §1, with “CHO-K1” for “Rko”, “over-expressed” for “over-expressing”, “the humanized” for “primary PTM”

B1: 31D9B3 VH1.3-VL2.2 hIgG1 (antibody, V domains shown)
VH: QVQLVQSGAEVKKPGASVKVSCKASGYTFTDYWVSWVRQAPGQGLEWMGEIYPKNQVSNFNEKFKGRVTMTTDTSTSTAYMELRSLRSDDTAVYYCARQRDYWGQGTLVTVSS
VL: DVVMTQSPLSLPVTLGQPASISCRSSQSLEYGDRYTYLEWYLQRPGQSPRLLIYGVSNRFSGVPDRFSGSGSGTDFTLKISRVEAEDVGVYYCFQATHDPNTFGQGTKLEIK
notes: Humanized, PTM de-risked, human IgG1; also called 31D9B3 VH1.3-VL2.2 hlgG1
[1]
  EC50: 0.783 nM
  Top (MFI): 16400 MFI
Mouse AMHR2
  binding result: no binding (tested: 300 nM highest concentration)
Rat AMHR2
  binding result: no binding (tested: 300 nM highest concentration)
[2]
  EC50: 0.703 nM
  Top (MFI): 24100 MFI

B2: 94C4C3 H1L1 hIgG1 (antibody, V domains shown)
VH: QLQLQESGPGLVKPSETLSLTCTVSGYSITSDYAWNWIRQPPGKGLEWIGYISYSGSISYNPSLKSRVTISVDTSKNQFSLKLSSVTAADTAVYYCARSRYSWFDYWGQGTLVTVSS
VL: EIVLTQSPGTLSLSPGERATLSCSASESVDTYGNSFMHWYQQKPGQAPRLLIYRASSLESGIPDRFSGSGSGTDFTLTISRLEPEDFAVYYCQQSNEDPYTFGGGTKVEIK
notes: Humanized, human IgG1; also called 94C4C3 H1L1 hlgG1
[1]
  EC50: 0.695 nM
  Top (MFI): 18900 MFI
Mouse AMHR2
  binding result: binds
Rat AMHR2
  binding result: binds
[3]
  EC50: 1.7 nM
  Top (MFI): 53000 MFI
